# Results published in patent US20030148973A1 (published 2003).
# Molecular target: T1, HLA-A0201 molecules on the surface of T2 cells
# T1 construct: whole, on cells; Empty (peptide-stripped) HLA-A0201 on T2 cells; also called HLA-A2
# Test: T2 cell HLA-A0201 stabilization; 20 µg peptide on 10^6 acid-stripped T2 cells, BB7.2 staining, flow cytometry
# Procedure: Subsequent dissociation of peptides from the HLA class 1 MHC molecules results in the loss of BB7.2 monoclonal antibody binding.
# In order to determine whether the identified nonapeptides can be presented by HLA-A0201, T2 cells were propagated in RPMI complete medium (RPMI medium supplemented with 10% heat-inactivated bovine serum, 120.0 units per ml of penicillin G sodium, 120 μg per ml of streptomycin sulphate, and 0.35 mg per ml of L-glutamine). The ability of MAGE-A1 derived peptides to bind and stabilize surface HLA-A0201 molecules on T2 cells was determined utilizing a standard protocol (Deng, Y. (1997) J Immunol 158:1507-1515). The required number of T2 flasks were incubated overnight at 26° C. serum-free culture medium (RPMI medium supplemented with 120.0 units per ml of penicillin G sodium and 0.35 mg per ml of L-glutamine). The next day, cells were washed with RPMI medium (without bovine serum) and then resuspended in denaturing solution (300 mM Glycine in 1% BSA, pH 2.5) for 3 min, in order to strip the existing HLA A2 molecules of endogenous peptide. The stripped T2 cells were washed at once in an excess of RPMI media (without bovine serum) to neutralize the acidic stripping solution. To load the peptide of interest into the HLA-A2 peptide binding groove, 20 μg of specific peptide was pulsed onto 10⁶ denatured T2 cells in 2 ml peptide loading media (RPMI medium supplemented with 120.0 units per ml of penicillin G sodium; 0.35 mg per ml of L-glutamine; 1× sodium pyruvate; 1× non-essential amino acids; 1×2-mercapto-ethanol) for 4 hours at 26° C. The cells were washed in cold 1% BSA in PBS and resuspended in 100 μl of cold 1% BSA in PBS to prevent MHC protein turn over. […] The binding of BB7.2 was detected via the addition of 1.0 μg per test of goat anti-mouse IgG-Fc fluorescein (FITC) conjugate (BETHYL Laboratories Inc). […] The samples were then analyzed by Flow Cytometry, and the results were expressed in units of Fluorescence Index (FI), calculated by the equation: […]
row,Binder,Fluorescence Index (FI)
1,SAYGEPRKL (also called Peptide # 14) [MAGE-A1 230],1.61
2,LQLVFGIDV (also called Peptide # 3) [MAGE-A1 151],0.52
3,KVLEYVIKV (also called Peptide # 1) [MAGE-A1 278],2.18
